Measurements published in patent US20030134779A1, “Method and composition for treatment and/or prevention of antibiotic-resistant microorganism infections” (priority 2002, published 2003).

Legend:
Format in all cases: cell-based, Staphylococcus aureus
[1] = system: S. aureus ATCC 25923; test: Cell morphology by transmission electron microscopy; details: LF 9.1 μg/ml alone; 18-h
Experimental: Bacterial cells were grown overnight on MHA or MHB containing sub-MICs of penicillin G with or without LF or LFC. Microorganisms were prepared for transmission electron microscopy by fixation with glutaraldehyde followed by ferritin labelling. This method allows good- preservation of capsular material. Briefly, bacterial cells grown in the presence or absence of antibiotics were fixed in cacodylate buffer (0.1 M, pH 7.0) containing 5% (v/v) glutaraldehyde, for 2 h at 20° C. Fixed microorganims were suspended in cacodylate buffer and allowed to react with the polycationic ferritin (Sigma Chemicals, St-Louis, Mo.; final concentration 1.0 mg/ml) for 30 min at 20° C. The reaction was slowed down by 10-fold dilution with buffer, and the microorganisms were centrifuged and washed three times in cacodylate buffer. Bacterial cells were then immobilized in 4% (w/v) agar, washed 5 times in cacodylate buffer and post-fixed with 2% (w/v) osmium tetroxide for 2 h. Washings were repeated as above, and the samples dehydrated in a graded series of acetone washes. Samples were then washed twice in propylene oxide and embedded in Spurr low-viscosity resin. Thin sections were post-stained with uranyl acetate and lead citrate and examined with an electron microscope (Philips 201) at an accelerating voltage of 60 kV.

[2] = system: β-lactamase induction in S. aureus SHY97-4320; test: Induction of β-lactamase after LF pre-incubation (signal transduction); details: LF 1 mg/ml added 30 or 60 min before 8 μg/ml penicillin G, 4 h
Experimental: As the β-lactamase system is the best-known signal transduction system in S. aureus. We tested the ability of LF to inhibit signal transduction in S. aureus SHY97-4320 which is an inducible beta-lactamase producing strain. Bacterial cells were first exposed during 30 or 60 min to LF in broth and were further treated with 8 μg/ml of penicillin G for an additional 4 h. The cfu/ml were determined, cells aliquots were centrifuged and pellets were suspended in 10 mM HEPES buffer (pH 7.4) as mentioned above. Nitrocefin (100 μM) was added to 20 μl of cells in a final volume of 200 μl. Hydrolysis was measured at 486 nm on a Spectra Max 250 Microplate Spectrophotometer System of Molecular Device (Fisher Scientific, Ottawa, Canada). β-Lactamase activity was expressed as ΔO.D.486 nm/min and corrected for bacterial OD.

[3] = system: S. aureus strains; test: MIC / FIC determination, summary over strains; details: strains of Table 1
Description: Staphylococcus aureus strains ATCC 25923 and 6538 and Escherichia coli ATCC 25922 were obtained from the American Type Culture Collection. Eight bovine mastitis clinical isolates of S. aureus (SHY97-3906, -3923, -4085 -4242, -4320 and -4343, RFT-1 and RFT-5) and one isolate of E. coli SHY97-3923-2 and one isolate of Kiebsiella pneumoniae SHY99-723-1 were kindly provided by the Laboratoire Provincial de Pathologie Animale of St-Hyacinthe and of Rock-Forest (Quebec, Canada), respectively. Nine β-lactam antibiotics resistant S. aureus strains (PC-1, NCTC 9789, 2076, 22260, ST79/741, 3804, RN9, FAR8, and FAR10) were obtained from Vanderbilt University School of Medicine (Nashville, Tenn., USA). […]
The MICs were determined by both macrodilution (1 ml/tube) and microdilution (100 μl/well) in sterile 96 well microtiter plates (International Nunc, Napierville, Ill.) techniques in three separate experiments according to the National Committee for Clinical Laboratory Standards (1992 and 1999) in three separate experiments. […] Effect of LF combination with antibiotic on MICs were determined by adding 0.5 mg or 1 mg/ml of LF to each antibiotic dilution. […] Effect of LF or LFC combination with antibiotic on MIC was also determined by checkerboard method using 96 well microtiter plates. […] The fractional inhibitory concentration (FIC) was calculated as described by Eliopoulos and Moellering (1991). […]

B1: LF: bovine lactoferrin, 80-kDa iron-binding glycoprotein found in milk (protein, UniProt P24627 20-708, looked up)
Lactotransferrin: APRKNVRWCTISQPEWFKCRRWQWRMKKLGAPSITCVRRAFALECIRAIAEKKADAVTLDGGMVFEAGRDPYKLRPVAAEIYGTKESPQTHYYAVAVVKKGSNFQLDQLQGRKSCHTGLGRSAGWIIPMGILRPYLSWTESLEPLQGAVAKFFSASCVPCIDRQAYPNLCQLCKGEGENQCACSSREPYFGYSGAFKCLQDGAGDVAFVKETTVFENLPEKADRDQYELLCLNNSRAPVDAFKECHLAQVPSHAVVARSVDGKEDLIWKLLSKAQEKFGKNKSRSFQLFGSPPGQRDLLFKDSALGFLRIPSKVDSALYLGSRYLTTLKNLRETAEEVKARYTRVVWCAVGPEEQKKCQQWSQQSGQNVTCATASTTDDCIVLVLKGEADALNLDGGYIYTAGKCGLVPVLAENRKSSKHSSLDCVLRPTEGYLAVAVVKKANEGLTWNSLKDKKSCHTAVDRTAGWNIPMGLIVNQTGSCAFDEFFSQSCAPGADPKSRLCALCAGDDQGLDKCVPNSKEKYYGYTGAFRCLAEDVGDVAFVKNDTVWENTNGESTADWAKNLNREDFRLLCLDGTRKPVTEAQSCHLAVAPNHAVVSRSDRAAHVKQVLLHQQALFGKNGKNCPDKFCLFKSETKNLLFNDNTECLAKLGGRPTYEEYLGTEYVTAIANLKKCSTSPLLEACAFLTR
- cell morphology [1]: no obvious effect
- induction of β-lactamase by penicillin G [2]: completely block induction of β-lactamase
- MICs of lactoferrin alone [3]: greater than 25 mg/ml
